Assay results: patent CN117603358A

Legend:
[1] = target: S蛋白, SARS-CoV-2 BA.1 (SARS-CoV-2 BA.1); test: cell-based or functional assay
[2] = target: S蛋白, SARS-CoV-2 XBB.1.5 (SARS-CoV-2 XBB.1.5); test: cell-based or functional assay
[3] = target: S蛋白, SARS-CoV-2 BQ.1.1 (SARS-CoV-2 BQ.1.1); test: cell-based or functional assay
[4] = target: S蛋白, SARS-CoV-2 Delta (SARS-CoV-2 Delta); test: cell-based or functional assay
[5] = target: S蛋白, SARS-CoV-2 BQ.1 (SARS-CoV-2 BQ.1); test: cell-based or functional assay
[6] = target: S蛋白, SARS-CoV-2 BF.7 (SARS-CoV-2 BF.7); test: cell-based or functional assay
[7] = target: S蛋白, SARS-CoV-2 BA.4/5 (SARS-CoV-2 BA.4/5); test: cell-based or functional assay
[8] = target: S蛋白, SARS-CoV-2 BA.2.75 (SARS-CoV-2 BA.2.75); test: cell-based or functional assay
[9] = target: S蛋白, SARS-CoV-2 XBB (SARS-CoV-2 XBB); test: cell-based or functional assay
[10] = target: SARS-CoV-2(BA.5) Spike RBD (SARS-CoV-2 BA.5); test: SPR (Biacore 8K), antibody captured on Protein A chip, RBD as analyte
[11] = target: SARS-CoV-2(BF.7) Spike RBD (SARS-CoV-2 BF.7); test: as above

Substance: LY-CoV1404 (antibody)
- 假病毒中和活性 IC50 [1]: 1.44 ng/mL
- 假病毒中和活性 IC50 [2]: > 2000 ng/mL
- 假病毒中和活性 IC50 [3]: > 2000 ng/mL
- 假病毒中和活性 IC50 [4]: 3.05 ng/mL
- 假病毒中和活性 IC50 [5]: > 2000 ng/mL
- 假病毒中和活性 IC50 [6]: 2.14 ng/mL
- 假病毒中和活性 IC50 [7]: 1.22 ng/mL
- 假病毒中和活性 IC50 [8]: 25.1 ng/mL
- 假病毒中和活性 IC50 [9]: > 2000 ng/mL
- Kd [10]: 0.184 nM
- Kd [11]: 0.162 nM
